Laboratory results reported in IntAct's records for PubMed 22770221.

B1: 14-3-3 protein epsilon (Rattus norvegicus (Rat)), P62260 (parent)
chain: MDDREDLVYQAKLAEQAERYDEMVESMKKVAGMDVELTVEERNLLSVAYKNVIGARRASWRIISSIEQKEENKGGEDKLKMIREYRQMVETELKLICCDILDVLDKHLIPAANTGESKVFYYKMKGDYHRYLAEFATGNDRKEAAENSLVAYKAASDIAMTELPPTHPIRLGLALNFSVFYYEILNSPDRACRLAKAAFDDAIAELDTLSEESYKDSTLIMQLLRDNLTLWTSDMQGDGEEQNKEALQDVEDENQ
partner: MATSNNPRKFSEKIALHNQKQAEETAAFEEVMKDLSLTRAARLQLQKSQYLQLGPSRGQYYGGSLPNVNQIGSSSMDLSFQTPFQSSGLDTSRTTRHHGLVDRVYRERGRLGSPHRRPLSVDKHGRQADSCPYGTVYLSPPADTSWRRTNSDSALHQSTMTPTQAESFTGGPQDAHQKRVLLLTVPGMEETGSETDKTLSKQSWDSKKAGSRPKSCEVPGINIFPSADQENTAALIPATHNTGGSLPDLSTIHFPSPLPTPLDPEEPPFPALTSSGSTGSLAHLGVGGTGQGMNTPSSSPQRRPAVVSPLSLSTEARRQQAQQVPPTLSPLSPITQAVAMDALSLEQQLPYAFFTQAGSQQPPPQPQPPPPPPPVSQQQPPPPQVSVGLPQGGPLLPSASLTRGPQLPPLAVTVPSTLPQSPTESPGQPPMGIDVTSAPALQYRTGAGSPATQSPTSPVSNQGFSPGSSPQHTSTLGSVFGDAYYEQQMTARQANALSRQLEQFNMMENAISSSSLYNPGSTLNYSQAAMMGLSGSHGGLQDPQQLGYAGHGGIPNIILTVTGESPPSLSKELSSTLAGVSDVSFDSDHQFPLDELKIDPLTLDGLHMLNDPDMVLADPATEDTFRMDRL

Variants of: B1
Details: with crtc1_rat Crtc1, Q157S1

effect of a mutation on the interaction | Variant
decreasing interaction strength | K50E
